The supplement of paper PMC10126150
± gives the standard deviation of the averaged measurements.

tested on: ATP; test: switch fluorescence ratio, 500 uM ATP over buffer (Cy3 cluster intensity, sum of 5 cycles each) (fold (ratio)); higher = stronger signal-on switching upon ATP binding; sequences stand for … in TCGTCGGCAGCGTCAGATGTGTATAAGAGACAGTTTTTTTTTTTTTTTTTTTTTTTTT…TC; conditions: aptamer strand: ATP DNA aptamer (quencher-CACCTGGGGGAGTATTGCGGAGGAAGG + anchor), 100 nM annealed; ATP concentration: 500 uM
Method in brief: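 After annealing to 100 nM quencher-labelled ATP aptamer, Cy3-labelled switching-strand clusters on a modified Illumina MiSeq flow-cell were imaged in selection buffer. A second image followed after 15 min with 500 uM ATP at 22 °C, and five such buffer/ATP cycles were done, each separated by NaOH stripping and re-annealing. The fluorescence ratio, averaged per switch-domain sequence, is summed target-cycle over summed buffer-cycle Cy3 intensity per cluster, with clusters outside 100-1000 RFU excluded.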
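Further: ATP exposure 15 min at 22 °C before imaging.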

Row | Sequence | switch fluorescence ratio
1 | TCGGGGGATA | 0.98 ± 0.039
2 | TATCATAGCG | 1.01 ± 0.046
3 | TTAATTAGGT | 1.02 ± 0.071
4 | CGATAACATG | 0.9984 ± 0.0051
5 | ATTCGTCTAG | 0.989 ± 0.012
6 | AAAGAAGGTA | 1 ± 0.026
7 | AAACCTGGGT | 1.03 ± 0.025
8 | GTTAACGATA | 1.03 ± 0.038
9 | TTCTACCTGA | 1.064 ± 0.0086
10 | GATATGCCTG | 1.01 ± 0.069
11 | GGAGGGGATG | 0.981 ± 0.011
12 | TGCCAAATAG | 1.02 ± 0.039
13 | CAGGGTCGGG | 0.966 ± 0.035
14 | GGTCAATCTA | 0.946 ± 0.045
15 | GGCATACCGT | 0.997 ± 0.0052
16 | TAATGGTCGG | 0.985 ± 0.053
17 | AACGGTCAGA | 1.02 ± 0.05
18 | GCGATTAGTT | 0.9711 ± 0.0012
19 | CGCGGGGGCG | 0.991 ± 0.025
20 | ATACGGGTTT | 1.024 ± 0.0097
21 | TAAGTTTTCC | 1.03 ± 0.032
22 | TGGGGAGAAA | 1 ± 0.031
23 | AAAGGGGTGA | 0.9698 ± 0.0057
24 | AGCTAATCGT | 1.01 ± 0.014
25 | GAAAAAAGGG | 1.11 ± 0.11

Row | Sequence | switch fluorescence ratio
26 | TGAGAAAATT | 1.017 ± 0.0034
27 | TTCGAAAAAA | 1.06 ± 0.14
28 | TTATTTAGTT | 1.01 ± 0.017
29 | TTATGGGGTT | 0.999 ± 0.043
30 | CCTGGTCCTA | 0.9879 ± 0.0074
31 | TAAAGGTGTA | 1 ± 0.026
32 | AACCCAACGA | 1.27 ± 0.025
33 | TCGCTCTGTT | 0.991 ± 0.011
34 | AAGCTTTCGT | 1.03 ± 0.014
35 | GGGTCTTGTG | 0.989 ± 0.022
36 | CTGATATGTA | 0.969 ± 0.045
37 | GTTTTTCAAG | 0.975 ± 0.01
38 | CTGGGTCACA | 1.02 ± 0.011
39 | GACGTGGTAG | 1.03 ± 0.016
40 | CCTGTTAAAT | 1.05 ± 0.022
41 | GCTGGTTGTT | 1.03 ± 0.041
42 | CATAGAGGGT | 0.951 ± 0.03
43 | TAAGGCTACA | 1.01 ± 0.016
44 | ATGTGCGGGC | 1.025 ± 0.0063
45 | GGGGAATCGC | 0.97 ± 0.055
46 | AGGGGGTCAC | 1 ± 0.026
47 | CCGAGACCGC | 2.71 ± 0.2
48 | CACTAGTTTT | 1.01 ± 0.012
49 | TCAATTGGGA | 0.983 ± 0.055
50 | TTTTAACGGG | 0.998 ± 0.027

Row | Sequence | switch fluorescence ratio
51 | TTAGCGTGGG | 0.99 ± 0.023
52 | TCCGCTTGAG | 1.36 ± 0.016
53 | TCGGTATGAC | 1.07 ± 0.029
54 | GTTTTTAACG | 1.02 ± 0.05
55 | GTGATTCTTG | 0.9745 ± 0.0022
56 | AATTTAAGAA | 0.971 ± 0.013
57 | TGGCGAGGCG | 1.046 ± 0.0077
58 | TAAGATCTGA | 1.02 ± 0.051
59 | TTTAGGAGGT | 1.04 ± 0.049
60 | TGGTTACAAA | 0.997 ± 0.015
61 | GGCCTAATAG | 1 ± 0.034
62 | AATCCGCTCT | 1.2 ± 0.11
63 | ATATTTGGAT | 1.03 ± 0.018
64 | ACCGAGATCA | 1.03 ± 0.014
65 | GTTTTACGTC | 0.981 ± 0.047
66 | AAAGTAGTTA | 0.991 ± 0.015
67 | TTCGTTTGAA | 1 ± 0.027
68 | TATAGAAGT | 1.002 ± 0.0015
69 | AGTTTTGCGT | 1.01 ± 0.034
70 | AAAAGATTTT | 1.06 ± 0.14
71 | TTAAGAACGG | 1.03 ± 0.075
72 | GGGGAATGGG | 1.01 ± 0.028
73 | GGTGTCGTCA | 1.024 ± 0.0081
74 | GCTAAAACCG | 1.06 ± 0.052
75 | AAATTGAGGA | 1.017 ± 0.0096

Row | Sequence | switch fluorescence ratio
76 | GTTGTGGGGA | 1.02 ± 0.023
77 | ATATCTGGCA | 1.02 ± 0.032
78 | CGAGAGAGTG | 0.96 ± 0.02
79 | TTGAGTGTGG | 0.998 ± 0.03
80 | AAGTAGTCTT | 0.995 ± 0.014
81 | TTGCTTTATT | 0.987 ± 0.016
82 | TTAAAAGGAA | 1.004 ± 0.0034
83 | GATCTATGTC | 0.989 ± 0.066
84 | CTTTTCTTGG | 0.991 ± 0.03
85 | TAGTGAAGTC | 1.02 ± 0.073
86 | AAGGAGGGGT | 0.9968 ± 0.0081
87 | ATAAATACAG | 0.9959 ± 0.0042
88 | GAGAAGCGGT | 1.004 ± 0.008
89 | CTAGCCGGGA | 1.017 ± 0.009
90 | CGTATTGCGT | 1.01 ± 0.025
91 | GGGACAGCGT | 1.03 ± 0.025
92 | TTAAGCTTGA | 1.015 ± 0.0062
93 | AAGGACACGG | 1.042 ± 0.01
94 | GGCCTCTGCT | 1.02 ± 0.02
95 | GAACGAGGGG | 1.01 ± 0.019
96 | GTTGGGGTGC | 1.01 ± 0.028
97 | TGGTTGTTTG | 0.968 ± 0.035
98 | TGCTGGAGCT | 1.06 ± 0.022
99 | ATAGACTTCT | 0.9966 ± 0.0064
100 | GCCGATTACG | 1.02 ± 0.033

Row | Sequence | switch fluorescence ratio
101 | TATGAGGGCA | 1.02 ± 0.013
102 | AAGAACTTGC | 0.982 ± 0.053
103 | CGGGGCTGTG | 1 ± 0.013
104 | ATTTTTATTT | 1.07 ± 0.12
105 | CCTTGTAGGG | 1.02 ± 0.03
106 | TCGGGGGTAT | 1.2 ± 0.36
107 | GGGCCTGATG | 1.01 ± 0.012
108 | ATGCGTGGAA | 1.02 ± 0.027
109 | AAAATATGCT | 1 ± 0.049
110 | TATCTTTTCT | 0.968 ± 0.014
111 | GCGTGTGTTC | 1.08 ± 0.049
112 | GTTTGTGTTC | 0.988 ± 0.015
113 | GGGGGTAGCG | 1.02 ± 0.028
114 | TTCAGGCCTT | 1.04 ± 0.059
115 | AGCCTGGGGA | 1.001 ± 0.0018
116 | GGATATTTGG | 0.992 ± 0.029
117 | GGACGGTATT | 1.08 ± 0.051
118 | TTTTTACGAG | 0.988 ± 0.045
119 | CCTGGTTAGG | 0.983 ± 0.013
120 | TCTTGATCTA | 1.015 ± 0.0098
121 | ATTCGCTGCT | 1 ± 0.02
122 | TTTAAAGTGG | 0.98 ± 0.015
123 | ATATGGATTA | 1.012 ± 0.0068
124 | ATCGATATTG | 0.991 ± 0.029
125 | GGGTTTAGAT | 0.9854 ± 0.0059

Row | Sequence | switch fluorescence ratio
126 | GGTCCGTAGG | 1.01 ± 0.033
127 | AAAGGGGACA | 1.02 ± 0.054
128 | GGTTTTGTGC | 1.03 ± 0.091
129 | ATAAGGGAAC | 1.04 ± 0.017
130 | GCATTAAGTG | 1 ± 0.024
131 | GGGGTATTAG | 0.991 ± 0.03
132 | TTACTTTGGG | 0.9892 ± 0.0065
133 | AATACTGATG | 1.007 ± 0.0032
134 | CGGTCTACCT | 1.02 ± 0.014
135 | CAAGGGGATT | 1 ± 0.027
136 | TACGCTGCAG | 1.05 ± 0.049
137 | CGGGCGCGGA | 1.01 ± 0.048
138 | TGTTGAGTAT | 0.9738 ± 0.0072
139 | TGGGTCTCTT | 1.01 ± 0.008
140 | ATACTCTGTT | 0.9926 ± 0.0031
141 | TGCAACCTTT | 1.02 ± 0.014
142 | TTTTTGATAT | 1.05 ± 0.056
143 | CGGGGCAGGG | 1.01 ± 0.062
144 | CGAGTTAAAA | 1.002 ± 0.0069
145 | GTTGTGTTTG | 0.998 ± 0.022
146 | TTAGGTAGGG | 0.988 ± 0.028
147 | TATTGTCTTT | 1.02 ± 0.025
148 | TCTTACAATC | 1.1 ± 0.095
149 | TAGTATTTTT | 0.977 ± 0.023
150 | ACGTGTAGGA | 1.0005 ± 0.00069

Row | Sequence | switch fluorescence ratio
151 | TGGAACGGTT | 1.04 ± 0.047
152 | GCGGCGGGTT | 1.04 ± 0.064
153 | GGGCGGGGTG | 1.03 ± 0.025
154 | AGGCGACTAT | 1 ± 0.011
155 | CGTTTGGTCT | 1 ± 0.051
156 | TTTAGAAATA | 1.05 ± 0.022
157 | TTTAATCATT | 1 ± 0.029
158 | GGAGGTTAAC | 1.012 ± 0.0091
159 | AGGGAATAGC | 1.01 ± 0.011
160 | CGACTTGCGT | 1.01 ± 0.012
161 | CGGACCGATG | 1.01 ± 0.0094
162 | CTAGGGCTTC | 0.979 ± 0.02
163 | ATTGGGGGGG | 1.02 ± 0.044
164 | CTTTGGGGTT | 1.01 ± 0.032
165 | TCTTGGGGGT | 1.03 ± 0.049
166 | ACGCTGGGGG | 1.06 ± 0.041
167 | TTTCATTATC | 1.02 ± 0.016
168 | GGCAGGAGGG | 1.11 ± 0.22
169 | CCTTGTTTAA | 1.01 ± 0.086
170 | CAAATTTGC | 0.9315 ± 0.0035
171 | GCGGTAAGGG | 1.016 ± 0.004
172 | AGGCGATTTA | 0.976 ± 0.022
173 | GGTTTTTGGG | 0.994 ± 0.033
174 | GCTTGTTGGG | 1.02 ± 0.038
175 | GGGTTGTAGC | 0.9909 ± 0.0027

Row | Sequence | switch fluorescence ratio
176 | TCCCTACGAT | 1.06 ± 0.016
177 | GCCGGACAGT | 1 ± 0.017
178 | TTATCCAATT | 0.9804 ± 0.0089
179 | ATAAGGCTCG | 0.966 ± 0.011
180 | CCCCATTTTA | 1 ± 0.018
181 | TTCGGAGCTG | 1.07 ± 0.14
182 | TTGAGGAAGT | 1.06 ± 0.058
183 | ACCCCTTGAT | 1.04 ± 0.023
184 | GACTGTTGTC | 0.9972 ± 0.0059
185 | TAAACCTGTG | 1.05 ± 0.088
186 | TGGGAATAAT | 1.03 ± 0.031
187 | TACCAAAGGT | 1.02 ± 0.031
188 | CGTATAAATC | 1.01 ± 0.043
189 | GTTAGGGGTT | 0.996 ± 0.024
190 | TGCTCTAAGG | 1.02 ± 0.046
191 | TGCCGTGGGT | 0.987 ± 0.04
192 | AAGATTTAAG | 1.02 ± 0.014
193 | GAGGATTCAT | 1.04 ± 0.085
194 | TTTAAAGATG | 0.999 ± 0.018
195 | ATTGTGTTAG | 1.03 ± 0.055
196 | TGCCGGGAAA | 1.01 ± 0.0084
197 | GGTTAACGGA | 1 ± 0.016
198 | GCGCGAGGGG | 1.01 ± 0.02
199 | CGCCCCGCTG | 1.13 ± 0.071
200 | TAATGAGCTA | 0.987 ± 0.042
